The values below come from article PMC8390497, “A guanidine-degrading enzyme controls genomic stability of ethylene-producing cyanobacteria” (Nature Communications, 2021).

Substrate in the series: N=C(N)N
The series is described as follows: HPLC guanidine / GC-MS urea quantification, velocity versus guanidine concentration. The class given is biochemical, Synechocystis sp. PCC 6803. Particulars: 20 mM Tris-HCl pH 7.5, 50 mM NaCl, 1 mM MnCl2, 30 °C, His-tagged enzyme, no ATP.

B1: Sll1077-His (Synechocystis sp. PCC 6803 substr. Kazusa) (protein)
chain: MSDATPFRPPSEAEEALIKETRLPLTGWQQEVDQGLTYGLEAAASIKDRSIPTFSRGELPHYAGINTFMKAPYLEDVREVGKYDVAIVGVPHDSGTTYRPGTRFGPQGIRRISALYTPYNFEMGVDLREQISLCDVGDIFTIPANNEKSFDQISKGIAHIFSSGAFPIILGGDHSIGFPTVRGICRHLGDKKVGIIHFDRHVDTQETDLDERMHTCPWFHATNMANAPAKNLVQLGIGGWQVPRQGVKVCRERATNILTVTDITEMSLDAAADFAIARATDGTDCVWISFDIDCIDAGFVPGTGWPEPGGLLPREALYLLKRIIRETNVCGMEVVEVSPPYDISDMTSLMATRVICDTMAHLVVSGQLPRTEKPAYIHAEANMAVDEPWQ
notes: full-length with C-terminal 6xHis tag kept (no XhoI linker, pPB316), overexpressed in and purified from Synechocystis 6803 strain PB816W
For the protein B1, the Km is on record as 5.3 ± 1.2 mM and the kcat stood at 0.040 ± 0.010 s⁻¹.

Usually Km stands for the substrate concentration at which the rate is half of its maximum. Usually kcat stands for the number of substrate molecules converted per active site and unit of time at saturation.
